Laboratory results published in the supplement of paper PMC12764529.
± gives the half width of the 95% confidence interval.

Columns and labels:
[1] = folding stability dG unfold from trypsin proteolysis; higher = more stable
How it was run: (§1)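 Mini-proteins designed to be under 80 residues and free of cysteine were carried in a PA-tagged cDNA display construct and digested with trypsin and with chymotrypsin. Each protease was applied at 11 threefold-diluted concentrations, alongside a no-protease condition, before sequencing. K50 came from Bayesian fitting of the sequencing counts, and unfolding free energy was obtained by comparing it with a sequence-predicted unfolded-state K50 and a shared folded-state K50, for each protease separately or for both together. Designs were retained only if their AlphaFold2 dimer inter-PAE exceeded 15.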

[2] = folding stability dG unfold from chymotrypsin proteolysis; higher = more stable
How it was run: as §1

[3] = folding stability dG unfold (combined trypsin and chymotrypsin); higher = more stable
How it was run: as §1

Sequence	folding stability dG unfold [1]	folding stability dG unfold [2]	folding stability dG unfold [3]
SAGGSAGGSAKKKVEIKIEIEEVTNKDGKKYIKIKIEVKVSEEVKKELADALKKAGFKVEPSAGGSAGGSAG [r3_157_TrROS_Hall]	6.43 ± 0.381 kJ/mol	10.2 ± 0.389 kJ/mol	9.07 ± 0.669 kJ/mol
SAGGSAGGSAKKKYVFTIPVKPNTFNPEKLKKFIEKAFPEFKNYEIKVEVLPDGTAKVYIEASAGGSAGGSA [r18_65_TrMRF]	11.3 ± 0.502 kJ/mol	18.4 ± 0.46 kJ/mol	16.3 ± 1 kJ/mol
SAGGSAGGSAKKPPVYKIKIKVVNKKTKKEIEIEVEVKAGKTPEEIAKELAKKFGIEKVEIESAGGSAGGSA [r18_58_TrROS_Hall]	4.76 ± 0.502 kJ/mol	6.17 ± 0.753 kJ/mol	6.08 ± 1.13 kJ/mol
SAGGSAGGSAKPDPGAPYPWKIVEVVPIRIDMYFKFPGEPFKMDIEIPILVMVDPDNGKIFSAGGSAGGSAG [r3_391_TrROS]	9.61 ± 0.46 kJ/mol	12.3 ± 0.268 kJ/mol	11.3 ± 0.586 kJ/mol
SAGGSAGGSAKPKITVTVEEVTNEDGSTYYRATARIEETGRTIEIYVRRDDLGKPVAIKITSAGGSAGGSAG [r3_432_TrROS_Hall]	7.61 ± 0.243 kJ/mol	10.1 ± 0.356 kJ/mol	9.13 ± 0.502 kJ/mol
SAGGSAGGSAKPKLHIHILTAGPFEELAELLEELAKRIFPPELEIDIHIHYIPKELLHPELGSAGGSAGGSA [r18_498_TrMRF]	11.5 ± 0.628 kJ/mol	10.5 ± 0.172 kJ/mol	10.8 ± 0.322 kJ/mol
SAGGSAGGSAKPNNAELVKVTYDPETGDFYAFYKIKNTDTVYVLRFNKDGTVEVKEYKFSEASAGGSAGGSA [r18_521_TrMRF]	12.4 ± 0.879 kJ/mol	16.5 ± 0.335 kJ/mol	15.4 ± 0.711 kJ/mol
SAGGSAGGSAKPTFDNVENLSLEELAKKIAKEAAEKYPDAKNVEVEFRLPNGKSYRIVVDVDSAGGSAGGSA [r18_449_TrMRF]	5.08 ± 0.151 kJ/mol	5.28 ± 0.502 kJ/mol	5.27 ± 0.402 kJ/mol
SAGGSAGGSAKRKVIEVDSLEEIKKAIEEAKEGEVVEIVVRDPETNETYTLKVVDGKIVLIPSAGGSAGGSA [r18_407_TrROS_Hall]	5.53 ± 0.163 kJ/mol	11.15 ± 0.0586 kJ/mol	9.48 ± 0.205 kJ/mol
SAGGSAGGSAKSVVRIKIYNKKTGKVLEIEIPENMTEEEIKKLAEELAKKNNVEIVEVEKVPSAGGSAGGSA [r18_322_TrROS_Hall]	7.65 ± 0.213 kJ/mol	12.5 ± 0.213 kJ/mol	11 ± 0.502 kJ/mol
SAGGSAGGSAKTITITFLFDSPENAKDFVREIAQEDGMKIKVEWERDPEGWWWVTATIEVPSAGGSAGGSAG [r3_273_TrROS]	9.89 ± 0.418 kJ/mol	14.6 ± 0.544 kJ/mol	13.1 ± 0.628 kJ/mol
SAGGSAGGSAKVVVDEVEVEVFKNEDGEEVLRVRFKKTGEEVEIPLEDLEKLELPPGAVVEPSAGGSAGGSA [r18_288_TrROS_Hall]	1.03 ± 0.146 kJ/mol	7.69 ± 0.209 kJ/mol	5.9 ± 0.293 kJ/mol
SAGGSAGGSAKYLVVGGKVIEIPSGGDAKIETTKDDRVKVTIDLPDDRKLEFTFPVPKWVGSAGGSAGGSAG [r3_207_TrMRF]	2.15 ± 0.121 kJ/mol	0.898 ± 0.414 kJ/mol	1.71 ± 0.293 kJ/mol
SAGGSAGGSALAEELAAKYPGLQVEVTRVEVEREVTDADGRKRTERVERLEIRVVKPGEELSAGGSAGGSAG [r3_358_TrROS_Hall]	2.09 ± 0.142 kJ/mol	-0.24 ± 0.251 kJ/mol	0.688 ± 0.753 kJ/mol
SAGGSAGGSALDSLVPDIDLRVRVEPVPDDPSILRADVELSDGLVLEVEFLPSGVARVSLSGKGSAGGSAGG [r6_122_TrMRF]	-0.129 ± 0.351 kJ/mol	-1.03 ± 0.46 kJ/mol	-0.388 ± 0.243 kJ/mol
SAGGSAGGSALIIVAPDGFIISIEWPNGKPRTIMMPPDEIDEILEDDGIKDIEIQKLPPGASAGGSAGGSAG [r3_141_TrROS]	1.62 ± 0.209 kJ/mol	6.22 ± 0.151 kJ/mol	4.79 ± 0.31 kJ/mol
SAGGSAGGSALKPNETATIRILTTAPDGKPYVLVVEVRVLPDGGVEVLGYKLVTLSDLEKNSAGGSAGGSAG [r3_212_TrMRF]	10.6 ± 0.46 kJ/mol	15.7 ± 0.343 kJ/mol	13.9 ± 0.46 kJ/mol
SAGGSAGGSALPLPPDQRLYVFRDPEGDLYLVRFEDGSEVRTSLKAEDLEKLGVPVVDIGDLSAGGSAGGSA [r18_125_TrMRF]	7.25 ± 0.146 kJ/mol	6.24 ± 0.155 kJ/mol	6.96 ± 0.134 kJ/mol
SAGGSAGGSAMEELVKEAIKEGKPGEVVLIRNEDGSVFALTVKDGKIEIKKLEEVKEVVEESAGGSAGGSAG [r3_244_TrROS_Hall]	6.05 ± 0.377 kJ/mol	4.44 ± 0.389 kJ/mol	4.82 ± 0.711 kJ/mol
SAGGSAGGSAMEIEIEIEIPVPVPGGVPSPENPEVAEERAEEIKEKYAKEGLKVKVKITVVSAGGSAGGSAG [r3_258_JUSTAS]	5.1 ± 0.879 kJ/mol	4.71 ± 0.255 kJ/mol	4.46 ± 1.26 kJ/mol
SAGGSAGGSAMELVVKEVEYRGPLSLSIEEIAEEIEKKEGIKVIELEEYPDEKVKITIEKVSAGGSAGGSAG [r3_66_JUSTAS]	-1.94 ± 0.669 kJ/mol	3.2 ± 0.502 kJ/mol	2.03 ± 0.795 kJ/mol

Sequence	folding stability dG unfold [1]	folding stability dG unfold [2]	folding stability dG unfold [3]
SAGGSAGGSAMITIKVSPDVPVPSNTPITLPNGKKVKATVTPVPSPEDGTPVLKITLDPNLISAGGSAGGSA [r18_476_JUSTAS]	-3.91 ± 1 kJ/mol	3.73 ± 0.0962 kJ/mol	1.87 ± 0.184 kJ/mol
SAGGSAGGSAMITSDDLEKLLKKLGIDPKKLGPEKLAKIFKELYPDAIITADPEGKAYIYPSAGGSAGGSAG [r3_375_TrMRF]	7.2 ± 0.293 kJ/mol	1.95 ± 0.795 kJ/mol	5.01 ± 0.586 kJ/mol
SAGGSAGGSAMIVTEEGNTITITTLTNLTFPTTGATSTATTTTTITLPPTPLFPVPRTDNSLSAGGSAGGSA [r18_501_JUSTAS]	-0.88 ± 0.46 kJ/mol	3.43 ± 0.502 kJ/mol	1.84 ± 1 kJ/mol
SAGGSAGGSAMKIKIEVVKNKNGYYYLKVEIEVNGKKIEITIKVPKNEKVSIEELLKKILKKSAGGSAGGSA [r18_111_TrROS_Hall]	11.6 ± 0.502 kJ/mol	19 ± 0.502 kJ/mol	17 ± 0.669 kJ/mol
SAGGSAGGSAMKKVTITLLDPRNGKEHTVTLPADITEEEAKAAAEAVAAERGWEVLSIEFEPSAGGSAGGSA [r18_322_JUSTAS]	15.1 ± 0.301 kJ/mol	14.3 ± 0.418 kJ/mol	14.9 ± 0.297 kJ/mol
SAGGSAGGSAMKLKVPTKDGKVYEVTVVDYDPENEKVVVKNPDTDELYTFSLEDFKKILEANSAGGSAGGSA [r18_161_TrMRF]	11.4 ± 0.711 kJ/mol	14.9 ± 0.335 kJ/mol	14.1 ± 0.502 kJ/mol
SAGGSAGGSAMKTIEIDIVIKNKETGEYYKAKAKIFENEDGSLIIEIEFEKNGKTLLIVLPPSAGGSAGGSA [r18_426_TrROS_Hall]	13.9 ± 0.402 kJ/mol	16 ± 0.46 kJ/mol	15.1 ± 0.837 kJ/mol
SAGGSAGGSAMKTIPVKTKEEAEKLAEELKASGYGEVKKTKSGNIIVKAPDGIDVKIVVPEKSAGGSAGGSA [r18_126_JUSTAS]	0.41 ± 0.285 kJ/mol	2.98 ± 0.301 kJ/mol	2.4 ± 0.795 kJ/mol
SAGGSAGGSAMLIVGGADPEGAAEAAEEFIAAIEKAAEELGIPPEHIEIPVLIAEPGEAPGSAGGSAGGSAG [r3_249_TrMRF]	4.97 ± 0.234 kJ/mol	1.21 ± 0.218 kJ/mol	3.49 ± 0.502 kJ/mol
SAGGSAGGSAMLRIKIYYKKNGEEYEIEVEGSLEEALKEAAKKLGLSEDEIKKIEIEELPESAGGSAGGSAG [r3_79_TrROS_Hall]	11.1 ± 0.502 kJ/mol	15.6 ± 0.36 kJ/mol	14.3 ± 0.837 kJ/mol
SAGGSAGGSAMLRIRFENGLEIEIPKDMTLEELKKLAEELAEELKKEGKEVEVKIVEIEPVPSAGGSAGGSA [r18_213_TrROS_Hall]	6.89 ± 0.184 kJ/mol	9.26 ± 0.121 kJ/mol	8.48 ± 0.314 kJ/mol
SAGGSAGGSAMLTKITITFEKPGTDETFTKPIDVPPDNPEEAIKAIKEELKKKGYKVKSVILSAGGSAGGSA [r18_3_JUSTAS]	5.35 ± 0.326 kJ/mol	7.24 ± 0.31 kJ/mol	6.56 ± 0.628 kJ/mol
SAGGSAGGSAMLYRITVRNADGEKLEIVVEMSEDEVRALAEELRKAGYEVRVEPIPEGEEPSAGGSAGGSAG [r3_35_TrROS_Hall]	20.5 ± 0.879 kJ/mol	20 ± 0.46 kJ/mol	20.1 ± 0.628 kJ/mol
SAGGSAGGSAMPKTTVYTIPYESDEEAEARIEEIKAEARARNPEAKVTVTPAGESVNVTIVGSAGGSAGGSA [r18_469_JUSTAS]	-2.93 ± 1.42 kJ/mol	-0.487 ± 0.795 kJ/mol	-1.57 ± 0.837 kJ/mol
SAGGSAGGSAMPLTSPEEAARHIKEALERLFPSSFPDRVIDPDVVVFTRPDGRVVALVKLKASAGGSAGGSA [r18_440_TrMRF]	3.67 ± 0.0962 kJ/mol	5.31 ± 0.305 kJ/mol	4.64 ± 0.285 kJ/mol
SAGGSAGGSAMPVKVKVTVKARFGDKEFELEFEIEVGPGATEEDIKNLVTEKYPGFEEVELESAGGSAGGSA [r18_195_JUSTAS]	8.01 ± 0.347 kJ/mol	9.05 ± 0.46 kJ/mol	9.05 ± 0.502 kJ/mol
SAGGSAGGSAMQRDPDGKPQPQVTFRIPADDMPEEQIKKHLPPEFADNFRDNMPEGDTITLSAGGSAGGSAG [r3_326_TrROS]	-2.88 ± 0.795 kJ/mol	-0.44 ± 1.05 kJ/mol	-0.998 ± 0.586 kJ/mol
SAGGSAGGSAMTFFVAVVKTETRVLPDGSLETRSSIEVKPVPAIPAEDLIKKLGLPLEDIASAGGSAGGSAG [r3_338_TrMRF]	8.93 ± 0.172 kJ/mol	13.1 ± 0.222 kJ/mol	10.9 ± 0.586 kJ/mol
SAGGSAGGSAMTFKSPEEAKKAAEELEKKTGYKIKITKIEVNEDGEKTVKIEILPPGEKLKSAGGSAGGSAG [r3_59_TrROS_Hall]	-0.998 ± 0.385 kJ/mol	2.28 ± 0.502 kJ/mol	1.19 ± 0.418 kJ/mol
SAGGSAGGSAMTIKVEVTVKVKVKLENGETKEKEVKVTVEIELPPLTKEELEKNKELLKKLLSAGGSAGGSA [r18_114_TrROS_Hall]	10.1 ± 0.586 kJ/mol	10.6 ± 0.335 kJ/mol	10.1 ± 0.669 kJ/mol
SAGGSAGGSAMTPDETRTVVVEEELPNGEPVVRVTDVRTLPDGSLETLGERVITREELEERSAGGSAGGSAG [r3_212_JUSTAS]	-1.83 ± 0.837 kJ/mol	3.11 ± 0.268 kJ/mol	1.65 ± 0.46 kJ/mol
